# In IntAct's records for PubMed 35512704:
# B1: Mothers against decapentaplegic homolog 4 (Homo sapiens), Q13485 (parent)
# chain: MDNMSITNTPTSNDACLSIVHSLMCHRQGGESETFAKRAIESLVKKLKEKKDELDSLITAITTNGAHPSKCVTIQRTLDGRLQVAGRKGFPHVIYARLWRWPDLHKNELKHVKYCQYAFDLKCDSVCVNPYHYERVVSPGIDLSGLTLQSNAPSSMMVKDEYVHDFEGQPSLSTEGHSIQTIQHPPSNRASTETYSTPALLAPSESNATSTANFPNIPVASTSQPASILGGSHSEGLLQIASGPQPGQQQNGFTGQPATYHHNSTTTWTGSRTAPYTPNLPHHQNGHLQHHPPMPPHPGHYWPVHNELAFQPPISNHPAPEYWCSIAYFEMDVQVGETFKVPSSCPIVTVDGYVDPSGGDRFCLGQLSNVHRTEAIERARLHIGKGVQLECKGEGDVWVRCLSDHAVFVQSYYLDREAGRAPGDAVHKIYPSAYIKVFDLRQCHRQMQQQAATAQAAAAAQAAAVAGNIPGPGSVGGIAPAISLSAAAGIGVDDLRRLCILRMSFVKGWGPDYPRQSIKETPCWIEIHLHRALQLLDEVLHTMPIADPQPLD
# partner: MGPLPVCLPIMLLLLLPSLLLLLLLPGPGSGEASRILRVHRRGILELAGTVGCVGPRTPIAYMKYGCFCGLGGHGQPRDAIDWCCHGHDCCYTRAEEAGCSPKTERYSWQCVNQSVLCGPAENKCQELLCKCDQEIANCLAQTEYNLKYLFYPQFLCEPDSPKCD
# B2: Mothers against decapentaplegic homolog 4 (Homo sapiens), Q13485 (parent)
# chain: B1 chain
# partner: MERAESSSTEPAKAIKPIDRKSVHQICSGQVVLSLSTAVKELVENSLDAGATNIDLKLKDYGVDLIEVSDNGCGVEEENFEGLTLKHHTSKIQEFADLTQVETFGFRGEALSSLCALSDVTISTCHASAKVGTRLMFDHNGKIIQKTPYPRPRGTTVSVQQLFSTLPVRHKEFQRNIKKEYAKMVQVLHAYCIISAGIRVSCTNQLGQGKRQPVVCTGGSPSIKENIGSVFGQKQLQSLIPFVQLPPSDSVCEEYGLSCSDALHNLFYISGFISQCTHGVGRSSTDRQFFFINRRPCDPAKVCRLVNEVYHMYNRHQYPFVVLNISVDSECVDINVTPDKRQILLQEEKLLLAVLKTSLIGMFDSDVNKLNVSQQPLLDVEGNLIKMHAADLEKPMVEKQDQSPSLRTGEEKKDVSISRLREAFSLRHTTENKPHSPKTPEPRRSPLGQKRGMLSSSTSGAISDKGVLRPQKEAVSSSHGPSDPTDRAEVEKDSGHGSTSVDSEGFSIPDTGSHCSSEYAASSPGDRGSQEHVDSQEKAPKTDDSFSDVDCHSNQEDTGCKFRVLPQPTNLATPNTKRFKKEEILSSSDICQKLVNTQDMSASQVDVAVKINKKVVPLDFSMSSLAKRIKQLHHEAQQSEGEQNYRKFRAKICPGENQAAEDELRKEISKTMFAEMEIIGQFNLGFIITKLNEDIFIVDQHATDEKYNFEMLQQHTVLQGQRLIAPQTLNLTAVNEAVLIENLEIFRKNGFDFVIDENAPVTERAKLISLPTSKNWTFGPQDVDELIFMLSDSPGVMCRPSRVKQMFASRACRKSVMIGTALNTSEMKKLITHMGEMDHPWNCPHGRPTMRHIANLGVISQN
# B3: Mothers against decapentaplegic homolog 4 (Homo sapiens), Q13485 (parent)
# chain: B1 chain
# partner: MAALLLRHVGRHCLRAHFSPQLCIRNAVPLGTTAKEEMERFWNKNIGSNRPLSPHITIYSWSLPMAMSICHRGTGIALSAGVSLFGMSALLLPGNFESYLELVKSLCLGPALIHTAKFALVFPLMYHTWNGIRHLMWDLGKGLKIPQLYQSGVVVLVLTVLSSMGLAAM
# B4: Mothers against decapentaplegic homolog 4 (Homo sapiens), Q13485 (parent)
# chain: B1 chain
# partner: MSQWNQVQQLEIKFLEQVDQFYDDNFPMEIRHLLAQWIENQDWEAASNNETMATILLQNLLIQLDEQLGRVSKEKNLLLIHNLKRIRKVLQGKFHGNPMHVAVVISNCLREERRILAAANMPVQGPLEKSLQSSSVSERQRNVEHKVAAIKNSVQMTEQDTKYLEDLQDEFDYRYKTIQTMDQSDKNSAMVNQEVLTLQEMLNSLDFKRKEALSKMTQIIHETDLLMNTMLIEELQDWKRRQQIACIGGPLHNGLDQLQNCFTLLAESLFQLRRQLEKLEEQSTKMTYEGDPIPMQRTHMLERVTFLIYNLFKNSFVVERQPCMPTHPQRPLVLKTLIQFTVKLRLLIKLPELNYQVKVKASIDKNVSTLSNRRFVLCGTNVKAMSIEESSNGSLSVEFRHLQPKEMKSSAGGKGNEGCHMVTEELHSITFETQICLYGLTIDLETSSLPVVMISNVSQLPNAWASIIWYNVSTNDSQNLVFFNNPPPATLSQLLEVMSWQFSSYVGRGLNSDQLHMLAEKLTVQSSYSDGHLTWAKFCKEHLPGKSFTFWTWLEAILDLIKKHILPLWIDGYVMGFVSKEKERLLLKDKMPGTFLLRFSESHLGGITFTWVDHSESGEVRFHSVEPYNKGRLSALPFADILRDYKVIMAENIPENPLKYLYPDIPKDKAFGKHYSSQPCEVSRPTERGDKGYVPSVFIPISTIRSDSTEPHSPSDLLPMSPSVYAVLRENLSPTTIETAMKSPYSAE
# B5: Mothers against decapentaplegic homolog 4 (Homo sapiens), Q13485 (parent)
# chain: B1 chain
# partner: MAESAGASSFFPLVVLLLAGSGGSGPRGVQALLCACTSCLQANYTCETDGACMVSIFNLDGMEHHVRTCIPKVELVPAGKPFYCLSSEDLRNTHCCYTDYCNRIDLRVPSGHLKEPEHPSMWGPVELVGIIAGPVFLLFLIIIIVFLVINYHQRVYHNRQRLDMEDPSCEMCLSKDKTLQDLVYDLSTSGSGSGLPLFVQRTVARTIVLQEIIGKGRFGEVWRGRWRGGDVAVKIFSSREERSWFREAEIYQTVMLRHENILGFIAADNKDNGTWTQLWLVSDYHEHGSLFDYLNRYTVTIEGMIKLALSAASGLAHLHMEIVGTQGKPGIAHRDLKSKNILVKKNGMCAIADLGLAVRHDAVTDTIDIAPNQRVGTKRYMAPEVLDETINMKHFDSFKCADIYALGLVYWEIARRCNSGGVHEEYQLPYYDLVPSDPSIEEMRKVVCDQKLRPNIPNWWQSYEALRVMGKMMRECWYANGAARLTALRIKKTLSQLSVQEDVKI
# B6: Mothers against decapentaplegic homolog 4 (Homo sapiens), Q13485 (parent)
# chain: B1 chain
# partner: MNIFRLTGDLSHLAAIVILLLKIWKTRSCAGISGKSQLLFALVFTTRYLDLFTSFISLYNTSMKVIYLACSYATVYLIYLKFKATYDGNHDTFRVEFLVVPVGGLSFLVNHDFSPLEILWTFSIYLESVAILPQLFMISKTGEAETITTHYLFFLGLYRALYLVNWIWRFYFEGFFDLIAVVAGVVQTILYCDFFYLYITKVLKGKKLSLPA
# B7: Mothers against decapentaplegic homolog 4 (Homo sapiens), Q13485 (parent)
# chain: B1 chain
# partner: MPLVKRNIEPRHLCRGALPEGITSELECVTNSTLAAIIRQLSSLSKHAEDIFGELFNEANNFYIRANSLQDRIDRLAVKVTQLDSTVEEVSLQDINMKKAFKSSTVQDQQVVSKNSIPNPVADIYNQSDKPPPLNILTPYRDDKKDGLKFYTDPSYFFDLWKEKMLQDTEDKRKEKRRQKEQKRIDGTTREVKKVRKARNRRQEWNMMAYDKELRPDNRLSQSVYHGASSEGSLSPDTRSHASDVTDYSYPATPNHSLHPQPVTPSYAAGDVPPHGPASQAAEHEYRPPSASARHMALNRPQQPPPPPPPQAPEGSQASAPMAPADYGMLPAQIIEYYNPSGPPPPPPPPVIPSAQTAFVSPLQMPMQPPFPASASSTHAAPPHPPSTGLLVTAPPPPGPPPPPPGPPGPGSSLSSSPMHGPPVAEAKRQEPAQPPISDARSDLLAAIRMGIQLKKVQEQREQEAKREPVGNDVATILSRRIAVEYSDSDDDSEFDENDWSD
# Variants of: B1
# Settings: with pa2gx_human PLA2G10, O15496
row,effect of a mutation on the interaction,Variant
1,with no effect,D351H

# Variants of: B2
# Settings: with pms2_human PMS2, P54278
row,effect of a mutation on the interaction,Variant
1,with no effect,G386D

# Variants of: B2
# Settings: with pms2_human PMS2, P54278
# Remark: another data set of the same source
row,effect of a mutation on the interaction,Variant
1,with no effect,R361H

# Variants of: B2
# Settings: with pms2_human PMS2, P54278
# Remark: another data set of the same source
row,effect of a mutation on the interaction,Variant
1,with no effect,R361C

# Variants of: B2
# Settings: with pms2_human PMS2, P54278
# Remark: another data set of the same source
row,effect of a mutation on the interaction,Variant
1,with no effect,D351H

# Variants of: B3
# Settings: with c560_human SDHC
row,effect of a mutation on the interaction,Variant
1,with no effect,G386D

# Variants of: B3
# Settings: with c560_human SDHC
# Remark: another data set of the same source
row,effect of a mutation on the interaction,Variant
1,with no effect,R361C

# Variants of: B3
# Settings: with c560_human SDHC
# Remark: another data set of the same source
row,effect of a mutation on the interaction,Variant
1,with no effect,R361H

# Variants of: B3
# Settings: with c560_human SDHC
# Remark: another data set of the same source
row,effect of a mutation on the interaction,Variant
1,with no effect,D351H

# Variants of: B4
# Settings: with stat4_human STAT4, Q14765
row,effect of a mutation on the interaction,Variant
1,with no effect,D351H

# Variants of: B4
# Settings: with stat4_human STAT4, Q14765
# Remark: another data set of the same source
row,effect of a mutation on the interaction,Variant
1,with no effect,G386D

# Variants of: B4
# Settings: with stat4_human STAT4, Q14765
# Remark: another data set of the same source
row,effect of a mutation on the interaction,Variant
1,with no effect,R361C

# Variants of: B4
# Settings: with stat4_human STAT4, Q14765
# Remark: another data set of the same source
row,effect of a mutation on the interaction,Variant
1,with no effect,R361H

# Variants of: B5
# Settings: with acv1b_human ACVR1B
row,effect of a mutation on the interaction,Variant
1,with no effect,R361H

# Variants of: B5
# Settings: with acv1b_human ACVR1B
# Remark: another data set of the same source
row,effect of a mutation on the interaction,Variant
1,with no effect,R361C

# Variants of: B5
# Settings: with acv1b_human ACVR1B
# Remark: another data set of the same source
row,effect of a mutation on the interaction,Variant
1,with no effect,G386D

# Variants of: B5
# Settings: with acv1b_human ACVR1B
# Remark: another data set of the same source
row,effect of a mutation on the interaction,Variant
1,increasing interaction strength,G386D

# Variants of: B6
# Settings: with erd22_human KDELR2, P33947
row,effect of a mutation on the interaction,Variant
1,with no effect,R361C

# Variants of: B6
# Settings: with erd22_human KDELR2, P33947
# Remark: another data set of the same source
row,effect of a mutation on the interaction,Variant
1,with no effect,R361H

# Variants of: B6
# Settings: with erd22_human KDELR2, P33947
# Remark: another data set of the same source
row,effect of a mutation on the interaction,Variant
1,with no effect,G386D

# Variants of: B7
# Settings: with wasf3_human WASF3, Q9UPY6
row,effect of a mutation on the interaction,Variant
1,with no effect,R361C

# Variants of: B7
# Settings: with wasf3_human WASF3, Q9UPY6
# Remark: another data set of the same source
row,effect of a mutation on the interaction,Variant
1,with no effect,R361H

# Variants of: B7
# Settings: with wasf3_human WASF3, Q9UPY6
# Remark: another data set of the same source
row,effect of a mutation on the interaction,Variant
1,with no effect,G386D

# Variants of: B7
# Settings: with wasf3_human WASF3, Q9UPY6
# Remark: another data set of the same source
row,effect of a mutation on the interaction,Variant
1,increasing interaction strength,G386D
